Test results reported in patent US20200155602A1 (IMMATICS BIOTECHNOLOGIES, published 2020).
Where no end group is shown, it is not given here. [ ]: non-standard residue; d: D form. pS = N[C@@H](COP(=O)(O)O)C(=O)O

target: T1, HLA-A*02:01 (human); test: UV-ligand exchange, anti-b2m ELISA; grade of peptide exchange yield (>10% = +; >20% = ++; >50 = +++; >75% = ++++)
T1 construct: Peptide-receptive HLA-A*02:01 monomer obtained by UV cleavage of a UV-sensitive ligand; captured on streptavidin plates; also called peptide-receptive MHC molecules; MHC class I
From the text: Candidate peptides for T cell based therapies according to the present invention were further tested for their MHC binding capacity (affinity). The individual peptide-MHC complexes were produced by UV-ligand exchange, where a UV-sensitive peptide is cleaved upon UV-irradiation, and exchanged with the peptide of interest as analyzed. Only peptide candidates that can effectively bind and stabilize the peptide-receptive MHC molecules prevent dissociation of the MHC complexes. To determine the yield of the exchange reaction, an ELISA was performed based on the detection of the light chain (β2m) of stabilized MHC complexes. The assay was performed as generally described in Rodenko et al. (Rodenko et al., 2006).
96 well MAXISorp plates (NUNC) were coated over night with 2 ug/ml streptavidin in PBS at room temperature, washed 4× and blocked for 1 h at 37° C. in 2% BSA containing blocking buffer. Refolded HLA-A*02:01/MLA-001 monomers served as standards, covering the range of 15-500 ng/ml. Peptide-MHC monomers of the UV-exchange reaction were diluted 100-fold in blocking buffer. Samples were incubated for 1 h at 37° C., washed four times, incubated with 2 ug/ml HRP conjugated anti-β2m for 1 h at 37° C., washed again and detected with TMB solution that is stopped with […]. Absorption was measured at 450 nm. Candidate peptides that show a high exchange yield (preferably higher than 50%, most preferred higher than 75%) are generally preferred for a generation and production of antibodies or fragments thereof, and/or T cell receptors or fragments thereof, as they show sufficient avidity to the MHC molecules and prevent dissociation of the MHC complexes.

| Binder | peptide exchange yield [%] |
| --- | --- |
| GLAGGFGGPGFPV | > 75 |
| TLWPATPPKA | 50 to 75 |
| VLFSSPPVI | > 75 |
| TLTDEINFL | > 75 |
| SLVSYLDKV | > 75 |
| RIMEGIPTV | > 75 |
| SMLNNIINL | 50 to 75 |
| ALKDSVQRA | 50 to 75 |
| SIWPALTQV | > 75 |
| YLYPDLSRL | > 75 |
| ALAKLLPLL | > 75 |
| PVCPPGGIQEV | 50 to 75 |
| YLINEIDRIRA | > 75 |
| FLHEPFSSV | > 75 |
| KLPEPCPSTV | 50 to 75 |
| SLPESGLLSV | 50 to 75 |
| LLIAINPQV | > 75 |
| SLCPPGGIQEV | > 75 |
| TLVDENQSWYL (also called TLVDENQSWYL) […] | 50 to 75 |
| YLAEPQWAV | > 75 |
| AVDPVSGSLYV | > 75 |
| RLLPDLDEV | > 75 |

| Binder | peptide exchange yield [%] |
| --- | --- |
| SLYGLGGSKRISI | 50 to 75 |
| TLASLGYAVV | 50 to 75 |
| HLATVKLLV | > 75 |
| IQDAEGAIHEV | > 75 |
| AIYEGVGWNV | > 75 |
| ALDTFSVQV | > 75 |
| ALVGDVILTV | > 75 |
| GLWSSIFSL | > 75 |
| ILLEDVFQL | > 75 |
| KLLPGVQYV | > 75 |
| LLPEDDTRDNV | 50 to 75 |
| ILDINDNPPV | 50 to 75 |
| VLDINDNPPV | 50 to 75 |
| LLTPLNLQI | 50 to 75 |
| RLNGEGVGQVNISV | 20 to 50 |
| ALYTSGHLL | > 75 |
| AVLGGKLYV | > 75 |
| GLGDDSFPI | > 75 |
| GLIEWLENTV | > 75 |
| GLISSIEAQL | > 75 |
| QLLEGELETL | 50 to 75 |
| YLLDYPNNL | 50 to 75 |

| Binder | peptide exchange yield [%] |
| --- | --- |
| YLWEAHTNI | > 75 |
| VCPPGGIQEV | 50 to 75 |
| ALSNVVHKV | > 75 |
| FLIPSIIFA | > 75 |
| LLFTGLVSGV | 50 to 75 |
| RLVEVGGDVQL | > 75 |
| RLSGEGVGPV | 50 to 75 |
| VLNVGVAEV | 50 to 75 |
| FLQLETEQV | > 75 |
| AILGFALSEA | > 75 |
| SLSDIQPCL | 50 to 75 |
| YLQNEVFGL | 50 to 75 |
| ALYDAELSQM | 50 to 75 |
| SLGNFKDDLL | 50 to 75 |
| FVAGYIAGV | > 75 |
| ILSSACYTV | > 75 |
| ALMDEINFMKM | > 75 |
| KILE[pS]LFV[pS]L [KILEJLFVJL] | 50 to 75 |
| ALWGFFPVLL | > 75 |
| TLLSEIAEL | > 75 |
| AQLNLIWQL | > 75 |
| KILEMDDPRA | 20 to 50 |
